Measured values as given in patent US20200223915A1 (OSAKA UNIVERSITY, published 2020).

T1: wild-type human Claudin 5 protein (human, UniProt O00501 1-218)
T1 construct: also called hCLDN5; CLDN 5
T1 sequence: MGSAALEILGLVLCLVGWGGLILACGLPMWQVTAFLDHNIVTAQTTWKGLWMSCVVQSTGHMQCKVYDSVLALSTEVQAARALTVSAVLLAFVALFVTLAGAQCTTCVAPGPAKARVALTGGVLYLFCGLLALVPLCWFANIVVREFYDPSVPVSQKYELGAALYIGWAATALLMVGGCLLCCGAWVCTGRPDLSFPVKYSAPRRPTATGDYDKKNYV

B1: antibody 3A5 (antibody, IgG2a, V domains shown)
VH: QVQLQQPGTELVKPGASVKLSCKASGYTFTSYWMHWVKQRPGQGLEWIGNINPSNGGTNYNEKFKSKATLTVDKSSTTAYMLLSSLTSEDSAVYYCARYYGSSFLYWYFDVWGTGTTVTVSS
VL: DIVMTQSHKFMSSSVGDRVSITCKASQDVGTAVAWYQQKPGQSPKILIYWASTRHTGVPDRFTGSGSGTDFTLTISNVQSEDLADYFCQQYSSYPTFGSGTKLEIKR
notes: Tested as hybridoma culture supernatant in the screening; also called antibody G
B2: antibody 1D1 (antibody, IgG2a, V domains shown)
VH: QVQLQQPGAEHVKPGASVKLSCKASGYTFTTYWIHWVKQRPGRGLEWIGRIAPNSGGTKYNENFKSKATLTVDRPSTTAYMQLSGLTSEDSAVYYCARWDFTFGTNLDYWGQGTTLTVSS
VL: DIVMTQSQKFMSTSVGDRVSITCKASQNVRTAVAWYQQKPGQSPKALIFLASNRHTGVPDRFTGSGSGTDFTLTITNVQSEDLADYFCLQHWTYPYTFGGGTKLEIKR
notes: Tested as hybridoma culture supernatant in the screening; also called antibody F
B3: antibody 1B3 (antibody, IgG2, V domains shown)
VH: QIQLVQSGPELKKPGETVKISCKASGYSFTAHGMSWVKQAPGKGLKWMGWINTYSGVPAYADDFKGRFAFSLETSPSTAFLQINNLKNEDTATYFCTRSHYDRKFGYWGQGTLVTVSA
VL: QAVVTQESALTTSPGETVTLTCRSSTGAVTTSNYANWVQEKPDHLFTGLIGDTNNRAPGVPARFSGSLIGDKAALTITGAQTGDEAIYFCALWYSNLWVFGGGTKLTVRG
notes: Tested as hybridoma culture supernatant in the screening; also called antibody E

target: T1, wild-type human Claudin 5 protein; assay: FACS screening of hybridoma supernatants on human Claudin 5-expressing HT-1080 cells against mock cells; positive clones
Protocol: The cells were washed three times with 0.2% BSA-TBS, and then mixed with 100 μL of a secondary antibody solution (FITC conjugated goat anti-mouse IgG+IgM in 1% BSA-PBS (1:400)), followed by a reaction at 4° C. for 1 hour. The cells were washed with 0.2% BSA-TBS, and FACS analysis (FACS caliber, BD Bioscience) was performed.

binding result	Binder
binds	B1
binds	B2
binds	B3
